Source: patent US20140242093A1, “METHODS AND COMPOSITIONS FOR MODULATING THE INNATE IMMUNE RESPONSE AND/OR MYOGENESIS IN A MAMMALIAN SUBJECT” (FRED HUTCHINSON CANCER RESEARCH CENTER, priority 2011, published 2014)
“And” between values parts separate entries of the source, which are not always exact repeats. Equal entries are not always repeated.

Legend:
[1] = test system: Cultured control human myoblasts; experiment: Beta-defensin 3 and innate immune response, real-time qPCR of IFIH1, ISG20, DEFB103; format: cell-based
Protocol: Cultured control human myoblasts were grown to 80% confluence and infected with equivalent titers of lenti-GFP, lenti-DUX4-s and lenti-DUX4-fl in growth media supplemented with 8 μg/mL polybrene. Expression of innate immune responsive genes including IFIH1 (MDA5), ISG20 and DEFB103 were assessed by real-time qPCR as previously described at 24 hours (primer sequences below). For conditioned media, cells were infected with lenti-DUX4-fl for 12 hours, thoroughly washed 3 times with PBS and switched to fresh growth media to condition for 12 hours. Control conditioned media was produced from cells not infected with any lentivirus. Myoblasts were infected with lenti-GFP in either control conditioned media, lenti-DUX4-fl conditioned media or regular growth media supplemented with 1 μM human β-defensin 3 (Peptides International, Louisville, Ky.). Expression of innate immune responsive genes were examined after 24 hours.

[2] = test system: Cultured control myoblasts; experiment: Beta-defensin 3 on myoblasts in growth media, expression arrays and MSTN qPCR; format: cell-based, human
Protocol: Cultured control myoblasts were grown at 50% confluence and treated with 1 μM human β-defensin 3. Equivalent volume of vehicle (water) was added to myoblasts for the control condition. Quadruplicate samples of control- and DEFB103-treated myoblasts were assessed for global expression changes on HumanHT-12 v4 Expression BeadChip Whole Genome arrays and analyzed as described in main methods. Differential expression of myostatin (MSTN) was confirmed by real-time qPCR.

[3] = test system: Cultured primary muscle cells; experiment: Beta-defensin 3 and myotube formation, immunostaining for myosin heavy chain; format: cell-based; settings: 0.5 uM, 72 hours in differentiation medium
Protocol: Cultured primary muscle cells were cultured in differentiation medium for 72 hours in the presence or absence of 0.5 uM Human β-defensin 3.

[4] = test system: control myoblasts in differentiation media
Protocol: Cultured control myoblasts were grown to confluence and switched to differentiation media (as described in Snider et al., 2010). 24 hours later, media was refreshed and either supplemented with 1 μM human β-defensin 3 or equivalent volume of water. Media was refreshed again at 48 hours. Cells were differentiated for a total of 72 hours. Quadruplicate samples were analyzed by expression microarrays as described above.

B1: DEFB103: human β-defensin 3 peptide (Peptides International), polypeptide SEQ ID NO:178 (peptide, listed as Homo sapiens)
chain: MRIHYLLFALLFLFLVPVPGHGGIINTLQKYYCRVRGGRCAVLSCLPKEEQIGKCSTRGRKCCRRKK
induction of innate immune genes by lenti-GFP ([1]; RT-qPCR of IFIH1 and ISG20, FIG. 8): inhibited the induction of the innate immune response to lenti-GFP
viral entry and transduction ([1]; copies of viral integrants and GFP mRNA): did not prevent viral entry and transduction
mRNA for myostatin ([2]; RT-qPCR, myoblasts): increased the mRNA for myostatin
gene expression changes in myoblasts ([2]; expression arrays, 2-fold change threshold): did not alter the expression of any genes
myostatin upregulation ([2]; expression arrays, myoblasts): approximately 50%
muscle cell fusion and myosin heavy chain expression [3]: inhibits muscle cell fusion and expression of myosin heavy chain
log2 FC defMT/MT, CYP2J2 [4]: −1.05
expression of muscle differentiation genes (ACTA1, CKM, CASQ2, MYH2, TNNT3) ([4]; RT-qPCR, FIG. 11): inhibits the expression of genes necessary for normal muscle differentiation
number of genes with reduced expression ([4]; differentiating muscle cells vs untreated control): 44 genes
log2 FC defMT/MT, ACTA1 ([4]; gene ACTA1, log2 ratio of expression in DEFB103 treated muscle cells compared to control muscle cells, differentiation media): −2.65
log2 FC defMT/MT, AIF1L ([4]; gene AIF1L, DEFB103 treated vs control differentiating muscle cells): −1.16
log2 FC defMT/MT, AKR1C2 ([4]; gene AKR1C2, DEFB103 treated vs control differentiating muscle cells): 1.41
log2 FC defMT/MT, ANGPTL4 ([4]; gene ANGPTL4, DEFB103 treated vs control differentiating muscle cells): 1.21
log2 FC defMT/MT, ARPP-21 ([4]; gene ARPP-21, DEFB103 treated vs control differentiating muscle cells): −1.06
log2 FC defMT/MT, ATP2A2 ([4]; gene ATP2A2, DEFB103 treated vs control differentiating muscle cells): −1.04
log2 FC defMT/MT, CACNG1 ([4]; gene CACNG1, DEFB103 treated vs control differentiating muscle cells): −1.58
log2 FC defMT/MT, CASQ2 ([4]; gene CASQ2, DEFB103 treated vs control differentiating muscle cells): −2.00
log2 FC defMT/MT, CKB ([4]; gene CKB, DEFB103 treated vs control differentiating muscle cells): −1.16
log2 FC defMT/MT, CKM ([4]; gene CKM, DEFB103 treated vs control differentiating muscle cells): −1.90
log2 FC defMT/MT, CTGF ([4]; gene CTGF, DEFB103 treated vs control differentiating muscle cells): −1.12
log2 FC defMT/MT, DKK1 ([4]; gene DKK1, DEFB103 treated vs control differentiating muscle cells): 1.22
log2 FC defMT/MT, ENO3 ([4]; gene ENO3 (two array entries), DEFB103 treated vs control differentiating muscle cells): −1.51 and −1.47
log2 FC defMT/MT, FOLR1 ([4]; gene FOLR1 (two array entries), DEFB103 treated vs control differentiating muscle cells): −1.10 and −1.03
log2 FC defMT/MT, HBEGF ([4]; gene HBEGF, DEFB103 treated vs control differentiating muscle cells): −1.10
log2 FC defMT/MT, HES6 ([4]; gene HES6, DEFB103 treated vs control differentiating muscle cells): −1.24
log2 FC defMT/MT, HFE2 ([4]; gene HFE2, DEFB103 treated vs control differentiating muscle cells): −1.04
log2 FC defMT/MT, HMOX1 ([4]; gene HMOX1, DEFB103 treated vs control differentiating muscle cells): 1.66
log2 FC defMT/MT, HRC ([4]; gene HRC, DEFB103 treated vs control differentiating muscle cells): −1.40
log2 FC defMT/MT, IL32 ([4]; gene IL32, DEFB103 treated vs control differentiating muscle cells): −1.03
log2 FC defMT/MT, LMCD1 ([4]; gene LMCD1, DEFB103 treated vs control differentiating muscle cells): −1.03
log2 FC defMT/MT, LOC389827 ([4]; gene LOC389827 (two array entries), DEFB103 treated vs control differentiating muscle cells): −1.48 and −1.38
log2 FC defMT/MT, MME ([4]; gene MME, DEFB103 treated vs control differentiating muscle cells): 1.27
log2 FC defMT/MT, MT1X ([4]; gene MT1X, DEFB103 treated vs control differentiating muscle cells): 1.65
log2 FC defMT/MT, MYBPH ([4]; gene MYBPH, DEFB103 treated vs control differentiating muscle cells): −1.49
log2 FC defMT/MT, MYH3 ([4]; gene MYH3, DEFB103 treated vs control differentiating muscle cells): −2.20
log2 FC defMT/MT, MYH7 ([4]; gene MYH7, DEFB103 treated vs control differentiating muscle cells): −1.73
log2 FC defMT/MT, MYH8 ([4]; gene MYH8, DEFB103 treated vs control differentiating muscle cells): −2.62
log2 FC defMT/MT, MYL1 ([4]; gene MYL1 (two array entries), DEFB103 treated vs control differentiating muscle cells): −1.18 and −1.11
log2 FC defMT/MT, MYL6B ([4]; gene MYL6B, DEFB103 treated vs control differentiating muscle cells): −1.00
log2 FC defMT/MT, MYLPF ([4]; gene MYLPF, DEFB103 treated vs control differentiating muscle cells): −1.53
log2 FC defMT/MT, MYOM1 ([4]; gene MYOM1, DEFB103 treated vs control differentiating muscle cells): −1.20
log2 FC defMT/MT, NDRG1 ([4]; gene NDRG1, DEFB103 treated vs control differentiating muscle cells): 1.01
log2 FC defMT/MT, PLIN2 ([4]; gene PLIN2 (two array entries), DEFB103 treated vs control differentiating muscle cells): 1.61 and 1.79
log2 FC defMT/MT, PRAGMIN ([4]; gene PRAGMIN, DEFB103 treated vs control differentiating muscle cells): −1.10
log2 FC defMT/MT, RASSF4 ([4]; gene RASSF4, DEFB103 treated vs control differentiating muscle cells): −1.03
log2 FC defMT/MT, SMPX ([4]; gene SMPX, DEFB103 treated vs control differentiating muscle cells): −1.76
log2 FC defMT/MT, SMYD1 ([4]; gene SMYD1, DEFB103 treated vs control differentiating muscle cells): −1.07
log2 FC defMT/MT, TNNC1 ([4]; gene TNNC1, DEFB103 treated vs control differentiating muscle cells): −1.45
log2 FC defMT/MT, TNNC2 ([4]; gene TNNC2, DEFB103 treated vs control differentiating muscle cells): −1.49
log2 FC defMT/MT, TNNT1 ([4]; gene TNNT1, DEFB103 treated vs control differentiating muscle cells): −1.00
log2 FC defMT/MT, TNNT3 ([4]; gene TNNT3 (two array entries), DEFB103 treated vs control differentiating muscle cells): −1.55 and −1.52
log2 FC defMT/MT, TPM2 ([4]; gene TPM2, DEFB103 treated vs control differentiating muscle cells): −1.41
log2 FC defMT/MT, VASH2 ([4]; gene VASH2, DEFB103 treated vs control differentiating muscle cells): −1.22
log2 FC defMT/MT, ZFP106 ([4]; gene ZFP106, DEFB103 treated vs control differentiating muscle cells): −1.09
